Changes are numbered by the printed parent chain. Names may count otherwise.
T1: Epitope peptide GGGGNLTQDRAQVEMQGSR
T1 peptide: GGGGNLTQDRAQVEMQGSR

T2: AMHRII receptor expressed on cells (cov434-AMHRII, Asc 1, META 2815) (human, UniProt Q16671 18-573)
T2 sequence (looked up): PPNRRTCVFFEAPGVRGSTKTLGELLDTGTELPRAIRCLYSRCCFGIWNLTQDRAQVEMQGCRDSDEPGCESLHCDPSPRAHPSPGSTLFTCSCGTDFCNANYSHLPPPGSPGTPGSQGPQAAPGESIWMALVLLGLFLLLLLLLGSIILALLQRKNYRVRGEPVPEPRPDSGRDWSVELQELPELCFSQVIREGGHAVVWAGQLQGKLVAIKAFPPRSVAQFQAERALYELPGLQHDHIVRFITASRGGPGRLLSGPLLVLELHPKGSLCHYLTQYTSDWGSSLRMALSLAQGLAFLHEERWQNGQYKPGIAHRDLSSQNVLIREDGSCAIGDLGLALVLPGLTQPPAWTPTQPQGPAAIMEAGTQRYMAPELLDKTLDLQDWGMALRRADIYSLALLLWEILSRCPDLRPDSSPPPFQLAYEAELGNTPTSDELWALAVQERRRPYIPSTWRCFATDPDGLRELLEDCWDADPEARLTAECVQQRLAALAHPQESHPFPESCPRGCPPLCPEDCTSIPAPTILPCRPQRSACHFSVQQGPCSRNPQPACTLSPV

B1: 4C_35 (mutated huLFB112 phage-scFv clone) (scFv, part only; not given: scFv linker and phage partner, V domains shown, not shown: another chain or arm of the molecule; large carriers; small tags and cut ends)
VH: QVQLVQSGAEVKKPGASVKVSCKASGYTFTSYHIHWVRQAPGQRPEWMGWIYPGDDSTKYSQKFQGRVTITRDTSASTAYMELSSLRSEDTAVYYCTRGDRFAYWGQGTLVTVSS
VL: DIQMTQSPSTLSASVGDRVTITCRASSSVRYIAWYQQKPGKAPKLLIYSTSSLKSGVPSRFSGSGSGTEFTLTISSLQPDDFATYYCLQWSSYPWTFGGGTKVEIK
B2: 4F_196 (mutated huLFB112 phage-scFv clone) (scFv, part only; not given: scFv linker and phage partner, V domains shown, not shown: another chain or arm of the molecule; large carriers; small tags and cut ends)
VH: B1 VH with Q3E, P45L, Q62R, E89D
VL: B1 VL with K54E
B3: 3C_23 (mutated huLFB112 phage-scFv clone) (scFv, part only; not given: scFv linker and phage partner, V domains shown, not shown: another chain or arm of the molecule; large carriers; small tags and cut ends)
VH: B1 VH with Q3R, P45L
VL: B1 VL with I47T, S49P, K54E
B4: unmutated humanized 12G4 monoclonal antibody (antibody, human IgG1, kappa, V domains shown)
VH: B1 VH with P45L
VL: DIQMTQSPSTLSASVGDRVTITCRASSSVRYIAWYQQKPGKAPKLLIYSTSSLESGVPSRFSGSGSGTEFTLTISSLQPDDFATYYCLQWSSYPWTFGGGTKVEIKR
notes: Variable regions without leader joined to the constant regions; also called huLFB112; 632 07 107 Anti AMHRII hum 1st
B5: 5B_81 (mutated huLFB112 phage-scFv clone) (scFv, part only; not given: scFv linker and phage partner, V domains shown, not shown: another chain or arm of the molecule; large carriers; small tags and cut ends)
VH: B1 VH
VL: B1 VL with K54E
B6: mutated humanized 12G4 antibody 3C-23K produced in CHO (antibody, human IgG1, kappa, V domains shown)
VH: B1 VH with Q3R, P45L
VL: B4 VL with I47T, S49P, E54K
notes: also called 3C_23K CHO; 3C-23K-CHO
B7: mutated humanized 12G4 antibody 6B-78 produced in CHO (antibody, human IgG1, kappa, V domains shown)
VH: B1 VH with P45L
VL: B4 VL with E54K
notes: also called 6B_78 CHO
B8: 6B_87 (mutated huLFB112 phage-scFv clone) (scFv, V domains shown)
VH: B1 VH with Q1E, A24V, P45L
VL: B1 VL with K54E
notes: scFv on M13 phage, tested as culture supernatant; Q1E: TAG codon suppressed, translated to E in E. coli XL1-blue; not shown: The 15-residue scFv peptide linker (positions 116-130 of the scFv numbering) and the M13 phage display partner
B9: 4E_153 (mutated huLFB112 phage-scFv clone) (scFv, V domains shown)
VH: B1 VH with P45L, D56N, I70N, F102S
VL: B1 VL with K54E
notes: scFv on M13 phage, tested as culture supernatant; not shown: The 15-residue scFv peptide linker (positions 116-130 of the scFv numbering) and the M13 phage display partner
B10: 3D_74 (mutated huLFB112 phage-scFv clone) (scFv, V domains shown)
VH: B1 VH with P45L
VL: B1 VL with S28P, K54E
notes: as for B9
B11: 4D_91 (mutated huLFB112 phage-scFv clone) (scFv, V domains shown)
VH: B1 VH with Q1E, V11A, P45L
VL: B1 VL with K54E
notes: as for B8
B12: 5A_66 (mutated huLFB112 phage-scFv clone) (scFv, V domains shown)
VH: B1 VH with P45L, V68M
VL: B1 VL with K54E, F82S
notes: as for B9
B13: 4F_169 (mutated huLFB112 phage-scFv clone) (scFv, V domains shown)
VH: B1 VH with Q6E, P45L, T58A
VL: B1 VL with K54E
notes: scFv on M13 phage, tested as culture supernatant; Q6E: TAG codon suppressed, translated to E in E. coli XL1-blue; not shown: The 15-residue scFv peptide linker (positions 116-130 of the scFv numbering) and the M13 phage display partner
B14: 6A_80 (mutated huLFB112 phage-scFv clone) (scFv, V domains shown)
VH: B1 VH with A24V, P45L, Q62E
VL: B1 VL with K54E
notes: scFv on M13 phage, tested as culture supernatant; Q62E: TAG codon suppressed, translated to E in E. coli XL1-blue; not shown: The 15-residue scFv linker (positions 116-130 of the scFv numbering) and the M13 phage display partner
B15: 5B_18 (mutated huLFB112 phage-scFv clone) (scFv, V domains shown)
VH: B1 VH with Q3E, A9T, P45L, A103T
VL: B1 VL with K54E
notes: scFv on M13 phage, tested as culture supernatant; Q3E: TAG codon suppressed, translated to E in E. coli XL1-blue; not shown: The 15-residue scFv peptide linker (positions 116-130 of the scFv numbering) and the M13 phage display partner
B16: mutated humanized 12G4 antibody 3C-23 produced in CHO (antibody, human IgG1, kappa, V domains shown)
VH: B1 VH with Q3R, P45L
VL: B4 VL with I47T, S49P
notes: also called 3C_23 CHO
B17: 6B_76 (mutated huLFB112 phage-scFv clone) (scFv, V domains shown)
VH: B1 VH with A40V, P45L
VL: B1 VL with S49P, K54E
notes: scFv on M13 phage, tested as culture supernatant; not shown: The 15-residue scFv linker (positions 116-130 of the scFv numbering) and the M13 phage display partner
B18: 5A_28 (mutated huLFB112 phage-scFv clone) (scFv, V domains shown)
VH: B1 VH with P45L
VL: B1 VL with Y48H, S49P, K54E
notes: as for B17
B19: 6B_14 (mutated huLFB112 phage-scFv clone) (scFv, V domains shown)
VH: B1 VH with S31G, Q39E, P45L
VL: B1 VL with K54E
notes: scFv on M13 phage, tested as culture supernatant; Q39E: TAG codon suppressed, translated to E in E. coli XL1-blue; not shown: The 15-residue scFv peptide linker (positions 116-130 of the scFv numbering) and the M13 phage display partner

Tests used:
[1] = molecular target: T3, AMHR-II/Fc fusion protein (human, UniProt Q16671 18-149, limits assumed); assay: phage-scFv ELISA on AMHRII-Fc; mean of at least four values, standard deviation in parentheses
T3 construct: also called AMHR-II recombinant receptor expressed in the form of fusion protein with a region Fc; recombinant target; not shown: Fc region
Procedure: The secondary screening consists of analysing the clones selected at the end of the primary screening individually. For this, the 113 unique mutated clones were transferred to a culture plate (96 well-1.2 ml).
After production of the phage particles, the culture supernatants containing the phages-scFv were used for carrying out an ELISA binding assay. The binding of the mutated clones was evaluated at two dilutions (½ and ¼ of the supernatants containing the scFv-phages). The murine clones (mLFB112) and humanized clones (huLFB112) constructed under the scFv-phages format were used as references on each of the assay plates. Each of the mutated clones was tested at least twice.

[2] = molecular target: T1, Epitope peptide GGGGNLTQDRAQVEMQGSR; assay: method not stated; Example 2, heading names cov434-AMHR-II cells and the epitope peptide
[3] = molecular target: T2, AMHRII receptor expressed on cells …; assay: cell-based or functional assay
[4] = molecular target: T2, AMHRII receptor expressed on cells …; assay: cell-based or functional assay; remark: listed apart in the source
[5] = molecular target: T3, AMHR-II/Fc fusion protein; assay: SPR, BIAcore X100; ratio against the chimeric 12G4
Procedure: (§1) The affinity of the antibodies for their antigen, AMHR-II, is determined by the SPR (Surface Plasmon Resonance) technique on BIACore X100 (BIACore, GE Healthcare). The AMHR-II recombinant receptor, expressed in the form of fusion protein with a region Fc, is immobilized by covalent coupling between its amine functions and the carboxyl groups of dextran activated in succinimide esters, present on the surface of the type CM5 sensor chip. The COOH groups of the sensor chip are activated for 7 minutes with EDC/NHS mixture (0.1 M of N-hydroxysuccinimide and 0.1 M of 3-(N,N-dimethylamino)propyl-N-ethylcarbodiimide) at a flow of 10 μl/min then the AMHR-II/Fc fusion protein, diluted to 5 μg/ml in 10 mM sodium acetate buffer, pH 4.0, is injected at […] on track 2 of the sensor chip so as to reach 300 RU. The ester groups that have not reacted with the amines of the fusion protein are deactivated by injection of a solution of ethanolamine-HCl 1M, pH 8.5 for 7 min at a flow of 10 μl:min. Track 1, serving as negative control, was activated and deactivated like track 2.
(§2) All the measurements are carried out at 25° C. The antibodies to be analysed are diluted in HBS-EP running buffer (BIACore, GE Healthcare) at concentrations from 6.25 to 3333 nM and injected on the sensor chip for 2 min at a flow of 30 μl/min. The dissociation step is monitored for 10 min and then the surface is regenerated by injection of 10 mM glycine buffer, pH 1.5 for 30 s at 10 μl/min.
(§3) The sensorgrams obtained are analysed using the 1:2 kinetic model of the BIAevaluation 3.1 software.

[6] = molecular target: T2, AMHRII receptor expressed on cells …; assay: cell-based or functional assay; remark: listed apart in the source
[7] = molecular target: T3, AMHR-II/Fc fusion protein; assay: SPR, BIAcore X100; AMHR-II/Fc immobilised on CM5 chip, antibody injected; 25 C
Procedure: as §1, §2, §3

| Binder | Ratio AB invention/chimeric 12G4 [1] | Ratio AB invention/humanized 12G4 [1] | further results |
| --- | --- | --- | --- |
| B1 | 1.9 | 4.3 |  |
| B2 | 1.5 | 3 |  |
| B3 | 1.2 | 2.6 |  |
| B4 |  |  | Kd [2]: 5260 nM; koff [2]: 0.00962 s⁻¹; kon [2]: 1830 M⁻¹ s⁻¹; EC50 (ng/ml), ADCC on ASC1 cells [3]: 52.4 ng/mL; Emax (% of lysis), ADCC on ASC1 cells [3]: 52.4 % of lysis; % of lysis of ASC1 cells (ADCC with NK cells, LDH release) at 0.001 ng/ml antibody [4]: 0%; % of lysis of ASC1 cells (ADCC with NK cells, LDH release) at 0.005 ng/ml antibody [4]: 18%; % of lysis of ASC1 cells (ADCC with NK cells, LDH release) at 0.05 ng/ml antibody [4]: 2%; % of lysis of ASC1 cells (ADCC with NK cells, LDH release) at 0.5 ng/ml antibody [4]: 0%; % of lysis of ASC1 cells (ADCC with NK cells, LDH release) at 5 ng/ml antibody [4]: 7%; % of lysis of ASC1 cells (ADCC with NK cells, LDH release) at 50 ng/ml antibody [4]: 24%; % of lysis of ASC1 cells (ADCC with NK cells, LDH release) at 500 ng/ml antibody [4]: 50%; % of lysis of ASC1 cells (ADCC with NK cells, LDH release) at 5000 ng/ml antibody [4]: 50% |
| B5 | 1.6 | 3.5 |  |
| B6 |  |  | KD chimeric/KD mutated [5]: 8.5; EC50, ADCC on META 2815 cells [6]: 0.467 µg/mL; Kd [7]: 25 nM; koff [7]: 0.001 s⁻¹; kon [7]: 41000 M⁻¹ s⁻¹ |
| B7 |  |  | KD chimeric/KD mutated [5]: 2.6; Kd [7]: 81 nM; koff [7]: 0.0012 s⁻¹; kon [7]: 15000 M⁻¹ s⁻¹ |
| B8 | 1 | 2.1 |  |
| B9 | 1 | 2 |  |
| B10 | 0.8 | 2 |  |
| B11 | 0.8 | 1.7 |  |
| B12 | 1.1 | 2.2 |  |
| B13 | 1 | 2 |  |
| B14 | 1.3 | 1.5 |  |
| B15 | 0.9 | 1.8 |  |
| B16 |  |  | KD chimeric/KD mutated [5]: 2.5; Kd [7]: 86 nM; koff [7]: 0.0043 s⁻¹; kon [7]: 50000 M⁻¹ s⁻¹ |
| B17 | 0.8 | 1.7 |  |
| B18 | 0.8 | 1.6 |  |
| B19 | 1.1 | 2.6 |  |

From US20130136743A1 (LABORATOIRE FRANCAIS DU FRACTIONNEMENT ET DES …, published 2013)
